# Experimental data published in IntAct's records for PubMed 21435037.
# B1: Inositol phosphate phosphatase SopB (Salmonella typhimurium), O30916 (parent)
# chain: MQIQSFYHSASLKTQEAFKSLQKTLYNGMQILSGQGKAPAKAPDARPEIIVLREPGATWGNYLQHQKASNHSLHNLYNLQRDLLTVAATVLGKQDPVLTSMANQMELAKVKADRPATKQEEAAAKALKKNLIELIAARTQQQDGLPAKEAHRFAAVAFRDAQVKQLNNQPWQTIKNTLTHNGHHYTNTQLPAAEMKIGAKDIFPSAYEGKGVCSWDTKNIHHANNLWMSTVSVHEDGKDKTLFCGIRHGVLSPYHEKDPLLRHVGAENKAKEVLTAALFSKPELLNKALAGEAVSLKLVSVGLLTASNIFGKEGTMVEDQMRAWQSLTQPGKMIHLKIRNKDGDLQTVKIKPDVAAFNVGVNELALKLGFGLKASDSYNAEALHQLLGNDLRPEARPGGWVGEWLAQYPDNYEVVNTLARQIKDIWKNNQHHKDGGEPYKLAQRLAMLAHEIDAVPAWNCKSGKDRTGMMDSEIKREIISLHQTHMLSAPGSLPDSGGQKIFQKVLLNSGNLEIQKQNTGGAGNKVMKNLSPEVLNLSYQKRVGDENIWQSVKGISSLITS
# Variants of: B1
# Conditions: with cdc42_human CDC42, P60953
# cdc42_human CDC42, P60953, sequence (P60953 whole entry, looked up): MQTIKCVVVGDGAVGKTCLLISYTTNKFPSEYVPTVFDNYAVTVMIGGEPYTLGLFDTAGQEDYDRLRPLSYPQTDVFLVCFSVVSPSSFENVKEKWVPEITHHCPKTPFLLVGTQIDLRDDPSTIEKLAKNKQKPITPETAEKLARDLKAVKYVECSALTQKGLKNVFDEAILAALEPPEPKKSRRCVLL
row,Variant,effect of a mutation on the interaction
1,L73P,decreasing interaction
2,L76P,decreasing interaction
3,L63P,decreasing interaction
4,L84P,decreasing interaction

# Variants of: B1
# Conditions: with cdc42_human CDC42, P60953
# Remark: another data set of the same source
row,Variant,effect of a mutation on the interaction
1,L76P;R466A,decreasing interaction
2,L73P;R466A,decreasing interaction
3,L84P;R466A,decreasing interaction
4,L52P,decreasing interaction
5,L63P;R466A,decreasing interaction
